Test results taken from US20210386875.

Tested on: ^111In-labeled DTPA-pMMP9 peptide on non-radioactive 10 nm gold nanoparticles

Sequence of MMP9 (chain, as listed by the source): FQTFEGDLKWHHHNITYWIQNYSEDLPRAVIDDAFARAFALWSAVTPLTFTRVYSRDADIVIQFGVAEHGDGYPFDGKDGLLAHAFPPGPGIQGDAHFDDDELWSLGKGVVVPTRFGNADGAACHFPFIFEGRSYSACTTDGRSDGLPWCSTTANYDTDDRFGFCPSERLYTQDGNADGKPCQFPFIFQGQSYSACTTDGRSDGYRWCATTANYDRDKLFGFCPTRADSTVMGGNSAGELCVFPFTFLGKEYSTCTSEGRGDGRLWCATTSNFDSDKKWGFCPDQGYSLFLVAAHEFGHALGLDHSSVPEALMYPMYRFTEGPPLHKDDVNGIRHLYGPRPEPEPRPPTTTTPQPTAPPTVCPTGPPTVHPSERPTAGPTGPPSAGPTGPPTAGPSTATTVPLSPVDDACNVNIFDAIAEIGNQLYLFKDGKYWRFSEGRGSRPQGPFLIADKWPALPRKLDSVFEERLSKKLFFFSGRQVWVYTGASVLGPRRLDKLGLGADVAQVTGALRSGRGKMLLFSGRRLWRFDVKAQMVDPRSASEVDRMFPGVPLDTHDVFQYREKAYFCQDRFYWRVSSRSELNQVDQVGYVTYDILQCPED

## MMP9
  percent of ^111In cleaved from the nanoparticle after 48 hours incubation with MMP9 (16% without MMP9): 48% ^111In was cleaved from the nanoparticle compared to only 16% without MMP9
